We go through four molecules from patent US20080267980A1 (published 2008).

Where two headings read alike, the source gives them in different places.

Experiment in all cases: SPR
Background: SPR reads the build-up and loss of mass on a sensor chip optically.

In assay [1] the target is T1, Human C3dg-biotin (human, UniProt P01024 955-1303, biotin (site not stated) in the SPR experiments).
The target in assay [2] is T1, Human C3dg-biotin. The source holds these as a separate data set.
The target in assay [3] is T1, Human C3dg-biotin. The source holds these as a separate data set.
In assay [4] the target is T1, Human C3dg-biotin. This is another data set of the same source.

T1 sequence (P01024 955-1303): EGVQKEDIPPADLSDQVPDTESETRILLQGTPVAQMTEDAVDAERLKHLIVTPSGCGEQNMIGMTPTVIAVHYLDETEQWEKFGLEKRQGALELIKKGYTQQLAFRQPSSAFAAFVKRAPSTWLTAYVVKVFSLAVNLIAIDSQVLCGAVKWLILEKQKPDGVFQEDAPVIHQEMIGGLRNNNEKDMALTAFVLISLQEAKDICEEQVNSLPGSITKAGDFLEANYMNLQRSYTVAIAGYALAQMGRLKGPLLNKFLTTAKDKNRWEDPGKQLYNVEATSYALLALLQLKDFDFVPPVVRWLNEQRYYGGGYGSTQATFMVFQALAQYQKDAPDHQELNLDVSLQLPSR

B1: CR2-DAF (other)
chain: ISCGSPPPILNGRISYYSTPIAVGTVIRYSCSGTFRLIGEKSLLCITKDKVDGTWDKPAPKCEYFNKYSSCPEPIVPGGYKIRGSTPYRHGDSVTFACKTNFSMNGNKSVWCQANNMWGPTRLPTCVSVFPLECPALPMIHNGHHTSENVGSIAPGLSVTYSCESGYLLVGEKIINCLSSGKWSAVPPTCEEARCKSLGRFPNGKVKEPPILRVGVTANFFCDEGYRLQGPPSSRCVIAGQGVAWTKMPVCGGGSGGGGSDCGLPPDVPNAQPALEGRTSFPEDTVITYKCEESFVKIPGEKDSVICLKGSQWSDIEEFCNRSCEVPTRLNSASLKQPYITQNYFPVGTVVEYECRPGYRREPSLSPKLTCLQNLKWSTAVEFCKKKSCPNPGEIRNGQIDVPGGILFGATISFSCNTGYKLFGSTSSFCLISGSSVQWSDPLPECREIYCPAPPQIDNGIIQGERDHYGYRQSVTYACNKGFTMIGEHSIYCTV
Broadly, the Kd is the constant that tells how readily two partners part at equilibrium. A low value points to a tighter complex. The molecule B1 had a Kd with Human C3dg-biotin [1] of 129 nM.

B2: DAF-CR2 (other)
chain: DCGLPPDVPNAQPALEGRTSFPEDTVITYKCEESFVKIPGEKDSVICLKGSQWSDIEEFCNRSCEVPTRLNSASLKQPYITQNYFPVGTVVEYECRPGYRREPSLSPKLTCLQNLKWSTAVEFCKKKSCPNPGEIRNGQIDVPGGILFGATISFSCNTGYKLFGSTSSFCLISGSSVQWSDPLPECREIYCPAPPQIDNGIIQGERDHYGYRQSVTYACNKGFTMIGEHSIYCTVNNDEGEWSGPPPECRSSGGGGSGGGGSGGGGSISCGSPPPILNGRISYYSTPIAVGTVIRYSCSGTFRLIGEKSLLCITKDKVDGTWDKPAPKCEYFNKYSSCPEPIVPGGYKIRGSTPYRHGDSVTFACKTNFSMNGNKSVWCQANNMWGPTRLPTCVSVFPLECPALPMIHNGHHTSENVGSIAPGLSVTYSCESGYLLVGEKIINCLSSGKWSAVPPTCEEARCKSLGRFPNGKVKEPPILRVGVTANFFCDEGYRLQGPPSSRCVIAGQGVAWTKMPVC
B2: the Kd with Human C3dg-biotin [2] is 2600 nM.

B3: CR2-CD59 (other)
chain: ISCGSPPPILNGRISYYSTPIAVGTVIRYSCSGTFRLIGEKSLLCITKDKVDGTWDKPAPKCEYFNKYSSCPEPIVPGGYKIRGSTPYRHGDSVTFACKTNFSMNGNKSVWCQANNMWGPTRLPTCVSVFPLECPALPMIHNGHHTSENVGSIAPGLSVTYSCESGYLLVGEKIINCLSSGKWSAVPPTCEEARCKSLGRFPNGKVKEPPILRVGVTANFFCDEGYRLQGPPSSRCVIAGQGVAWTKMPVCSGGGGSLQCYNCPNPTADCKTAVNCSSDFDACLITKAGLQVYNKCWKFEHCNFNDVTTRLRENELTYYCCKKDLCNFNEQLEN
Take B3: the Kd in the assay with Human C3dg-biotin [3] was determined as 15.5 nM.

B4: CD59-CR2 (other)
chain: LQCYNCPNPTADCKTAVNCSSDFDACLITKAGLQVYNKCWKFEHCNFNDVTTRLRENELTYYCCKKDLCNFNEQLENSSGGGGSGGGGSGGGGSISCGSPPPILNGRISYYSTPIAVGTVIRYSCSGTFRLIGEKSLLCITKDKVDGTWDKPAPKCEYFNKYSSCPEPIVPGGYKIRGSTPYRHGDSVTFACKTNFSMNGNKSVWCQANNMWGPTRLPTCVSVFPLECPALPMIHNGHHTSENVGSIAPGLSVTYSCESGYLLVGEKIINCLSSGKWSAVPPTCEEARCKSLGRFPNGKVKEPPILRVGVTANFFCDEGYRLQGPPSSRC
In the assay with Human C3dg-biotin [4], B4 had a Kd of 451 nM. This lies in the sub-micromolar range.
